This is an account of results in article PMC5014597.

For assay [1], the target named is TDP-43 C-terminal domain (residues 267-414) M337V (human) (UniProt Q13148).
In assay [2] the target is TDP-43 C-terminal domain (residues 267-414), wild type (human) (UniProt Q13148). Description: 15N CPMG relaxation dispersion NMR.
Assay [3] shares this target. Description: 15N CPMG relaxation dispersion NMR. This is another data set of the same source.

Where two headings read alike, the source gives them in different places.

One may read the koff as the rate constant with which the complex falls apart.

Consider “TDP-43 C-terminal domain (residues 267-414) M337V (from UniProt Q13148 267-414) (domain or fragment)”, for which the decrease of turbidity of 20 µM CTD in 150 mM NaCl against wild type in assay [1] was determined as 50%.

As to “TDP-43 C-terminal domain (residues 267-414), wild type (from UniProt Q13148 267-414) (domain or fragment)”, in assay [2], the kex (kon + koff, global exchange rate) stood at 1000 s⁻¹ and the koff is 970 s⁻¹. In assay [3], the kex (kon + koff, global exchange rate) came out at 1200 s⁻¹ and the koff was determined as 1100 s⁻¹.
